# Substrate: N[C@@H](Cc1ccc(O)cc1)C(=O)O
# Experiment: Promoting effect on amino acid efflux from human LAT2 stably expressing cell line
# Type: cell-based
# Conditions: other: Km for amino acid efflux, Table 7; 37.0 °C
# Description: In the same manner as in Example 3, the human LAT1 stably expressing cell line and the human LAT2 stably expressing cell line were seeded on separate collagen-coated 24-well plates, and after 48 hours, the cells were washed with an uptake buffer prewarmed at 37° C. An uptake buffer supplemented with 1 μM of [^14C]L-leucine or [^14C]L-alanine was added to each well, and [^14C]L-leucine or [^14C]L-alanine uptake by the cells was allowed to proceed at 37° C. for 10 minutes. The cells were washed with an uptake buffer prewarmed at 37° C., treated with the compound of Example 1 or the positive control FAMT at 1, 2, 3, 5, 10, 20, 50, 100 or 200 μM, and incubated at 37° C. for 1 minute, and the supernatants were collected. The radioactivity in each supernatant was measured as the radioactivity of the amino acid released from the cells. Subsequently, 500 μL of 0.1 M NaOH was added to each well for cell lysis, 20 μL of the lysate was used for the measurement of the protein concentration, and the remaining lysate was used for the measurement of the residual radioactivity in the cells. The sum of the residual radioactivity and the released radioactivity in each experiment was checked to confirm that there was no great difference in the total radioactivity incorporated into the cells at the preloading among the experiments. […]
protein,measurement,value
"human LAT2 (Homo sapiens) (protein, expressed in transfected cells) MEEGARHRNNTEKKHPGGGESDASPEAGSGGGGVALKKEIGLVSACGIIVGNIIGSGIFVSPKGVLENAGSVGLALIVWIVTGFITVVGALCYAELGVTIPKSGGDYSYVKDIFGGLAGFLRLWIAVLVIYPTNQAVIALTFSNYVLQPLFPTCFPPESGLRLLAAICLLLLTWVNCSSVRWATRVQDIFTAGKLLALALIIIMGIVQICKGEYFWLEPKNAFENFQEPDIGLVALAFLQGSFAYGGWNFLNYVTEELVDPYKNLPRAIFISIPLVTFVYVFANVAYVTAMSPQELLASNAVAVTFGEKLLGVMAWIMPISVALSTFGGVNGSLFTSSRLFFAGAREGHLPSVLAMIHVKRCTPIPALLFTCISTLLMLVTSDMYTLINYVGFINYLFYGVTVAGQIVLRWKKPDIPRPIKINLLFPIIYLLFWAFLLVFSLWSEPVVCGIGLAIMLTGVPVYFLGVYWQHKPKCFSDFIELLTLVSQKMCVVVYPEVERGSGTEEANEDMEEQQQPMYQPTPTKDKDVAGQPQP",Km,32.7 µM

# Source: patent publication US9839701B2, “Aromatic amino acid derivative and positron emission topography (PET) probe using the same” (OSAKA UNIVERSITY, priority 2013, dated 2017)
